# According to paper PMC7039212 (The Journal of Cell Biology, 2019):
# T1: GFP-CD2AP-1–475 aa (human, UniProt Q9Y5K6 1-475)
# T1 sequence (looked up): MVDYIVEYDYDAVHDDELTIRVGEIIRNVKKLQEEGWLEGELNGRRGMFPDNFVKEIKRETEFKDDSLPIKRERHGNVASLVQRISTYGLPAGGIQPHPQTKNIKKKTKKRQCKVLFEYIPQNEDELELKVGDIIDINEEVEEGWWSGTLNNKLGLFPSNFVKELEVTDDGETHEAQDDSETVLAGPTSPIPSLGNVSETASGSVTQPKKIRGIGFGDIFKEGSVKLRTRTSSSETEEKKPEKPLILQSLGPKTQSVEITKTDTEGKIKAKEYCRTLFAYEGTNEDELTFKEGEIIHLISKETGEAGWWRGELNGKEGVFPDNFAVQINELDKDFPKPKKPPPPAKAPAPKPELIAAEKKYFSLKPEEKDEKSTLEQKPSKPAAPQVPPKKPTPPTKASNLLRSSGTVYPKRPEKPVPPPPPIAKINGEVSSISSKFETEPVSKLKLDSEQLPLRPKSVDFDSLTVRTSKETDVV
# T2: GFP-CD2AP-1-335 aa (human, UniProt Q9Y5K6 1-335)
# T2 sequence (looked up): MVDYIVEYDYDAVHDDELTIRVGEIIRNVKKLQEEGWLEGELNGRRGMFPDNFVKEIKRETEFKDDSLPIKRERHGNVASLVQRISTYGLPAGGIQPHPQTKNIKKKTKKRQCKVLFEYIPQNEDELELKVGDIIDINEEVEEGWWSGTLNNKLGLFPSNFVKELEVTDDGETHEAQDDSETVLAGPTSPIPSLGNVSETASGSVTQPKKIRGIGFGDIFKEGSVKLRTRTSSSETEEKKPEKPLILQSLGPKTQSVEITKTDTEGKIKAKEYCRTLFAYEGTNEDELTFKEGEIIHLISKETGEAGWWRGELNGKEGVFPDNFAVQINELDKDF
# What was measured:
# Test in all cases: MST
# [1] = biological target: Cy5-G-actin (UniProt P68135)
# [2] = biological target: T1, GFP-CD2AP-1–475 aa
# [3] = biological target: T2, GFP-CD2AP-1-335 aa
# Sequence of profilin (P07737 whole entry): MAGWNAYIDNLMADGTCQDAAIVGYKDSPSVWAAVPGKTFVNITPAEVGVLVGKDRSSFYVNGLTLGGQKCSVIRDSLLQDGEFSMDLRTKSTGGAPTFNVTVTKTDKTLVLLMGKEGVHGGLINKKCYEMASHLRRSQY
Kd [1],Kd [2],Kd [3],Molecule
150 nM,,,profilin (from UniProt P07737 1-140) (natural protein)
,940 nM,350 nM,"PI3K p85α 1–315 aa (domain or fragment, human, UniProt P27986 1-315, looked up) MSAEGYQYRALYDYKKEREEDIDLHLGDILTVNKGSLVALGFSDGQEARPEEIGWLNGYNETTGERGDFPGTYVEYIGRKKISPPTPKPRPPRPLPVAPGSSKTEADVEQQALTLPDLAEQFAPPDIAPPLLIKLVEAIEKKGLECSTLYRTQSSSNLAELRQLLDCDTPSVDLEMIDVHVLADAFKRYLLDLPNPVIPAAVYSEMISLAPEVQSSEEYIQLLKKLIRSPSIPHQYWLTLQYLLKHFFKLSQTSSKNLLNARVLSEIFSPMLFRFSAASSDNTENLIKVIEILISTEWNERQPAPALPPKPPKPT"
